What was measured:
[1] = tested on: ASS-negative SCLC cell line SW1271; experiment: MTS proliferation assay, adherent cells; format: cell-based, human; conditions: 0 to 10 mIU ml^−1, 120 h
Protocol: (§1) To assess the anti-proliferative effect of ADI-PEG 20 on adherent cells, cells were plated a density of 2×10^3 cells per well in a tissue culture 96-microwell plate and allowed to adhere overnight. The following day, cells were treated with ADI-PEG 20 (DesigneRx Pharmaceuticals, Vacaville, Calif., USA, a subsidiary of Polaris Group, San Diego, Calif., USA) ranging from 0 to 10 mIU ml^−1. After incubation for 120 h, cell viability was determined using (3-(4,5-dimethylthiazol-2-yl)-5-(3-carboxymethoxyphenyl)-2-(4-sulfophenyl)-2H-tetrazolium) (MTS, CellTiter 96 AQueous One Solution, Promega, Madison, Wis., USA), according to the manufacturers protocol. Twenty microliters of MTS reagent was added to the appropriate control and assay wells before the plate was incubated for 2 h at 37° C. and absorbance read at 490 nm. Absolute absorbance for each treatment was determined by subtracting the background MTS absorbance, and the mean and standard deviation was calculated. The effect of the autophagy inhibitor chloroquine (Sigma) on cell proliferation was assessed using the MTS assay.

[2] = tested on: ASS-negative SCLC cell line SK-LC-13; experiment: MTS proliferation assay, adherent cells; format: cell-based, human; conditions: 0 to 10 mIU ml^−1, 120 h
Protocol: as §1

[3] = tested on: SW1222; experiment: MTS viability of siRNA-transfected ASS-positive SW1222 cells treated with ADI-PEG 20; format: cell-based
Protocol: as §1
To further assess the importance of cellular ASS expression in response to treatment with ADI-PEG 20, expression of ASS was silenced through the use of ASS-specific siRNA. Small interfering RNA constructs were obtained from Integrated DNA technologies (IDT, Coralville, Iowa, USA) against the ASS-coding region. […]

[4] = tested on: SK-LC-13 cells; experiment: Western blot of active caspase 3; format: cell-based, human
Protocol: Following washing, the membranes were then probed with the appropriate secondary antibody before proteins were finally visualized using ECL reagent (Perkin-Elmer, Fremont Calif., USA).
In order to determine the possible mechanism of the antiproliferative effects of ADI-PEG 20 a FACS analysis of apoptosis by sub-G1 DNA content was performed. Cells were treated for 72 h before the analysis was performed.

[5] = tested on: L-arginine and L-citrulline; experiment: Serum arginine and citrulline by HPLC; format: in vivo, mice
Protocol: In order to determine the effect of ADI-PEG 20 treatment on systemic arginine levels, mice sera were analyzed using high-performance liquid chromatography (HPLC). L-arginine and L-citrulline were resolved with a Pickering Laboratories PCX 5200 post-column derivatization instrument (Pickering Laboratories, Mountain View, Calif., USA) at 39° C. reaction temperature and a fluorescence detector. […] Total ADI-PEG 20 levels were measured by ELISA, as described previously (Holtsberg et al, J Control Release 80(1-3):259-271, 2002).

[6] = tested on: ASS-positive control lines, Fujioka and U937; experiment: Viability of AML cell lines treated with ADI-PEG 20; format: cell-based
Protocol: (§2) In this example, it was determined whether ASS negativity would predict for the efficacy of pegylated arginine deiminase (ADI-PEG 20) using AML cell lines and primary AML samples. A lack of ASS protein was identified in three of seven leukemic cell lines (K562, Kasumi and KG-1) and in all nine samples from patients with cytogenetically normal and abnormal karotype AML. Methylation of the ASS promoter correlated with reduced levels of ASS mRNA and absence of ASS expression.
(§3) Primary ASS-negative AML samples with good engraftment in NOD/SCID mice have been identified and studies of the efficacy of ADI-PEG 20 using this primary AML xenograft model have begun. Based on the results described herein and the potential efficacy with low toxicity of arginine deprivation in humans, a phase II trial of ADI-PEG 20 has been planned in patients with relapsed AML.

[7] = tested on: ASS-negative AML lines; experiment: as above; format: cell-based
Protocol: as §2, §3

B1: ADI-PEG 20: arginine deiminase (ADI) formulated with PEG of 20,000 m.w. (protein)
chain: MSVFDSKFNGIHVYSEIGELETVLVHEPGREIDYITPARLDELLFSAILESHDARKEHQSFVKIMKDRGINVVELTDLVAETYDLASKAAKEEFIETFLEETVPVLTEANKEAVRAFLLSKPTHEMVEFMMSGITKYELGVESENELIVDPMPNLYFTRDPFASVGNGVTIHFMRYIVRRRETLFARFVFRNHPKLVKTPWYYDPAMKMSIEGGDVFIYNNETLVVGVSERTDLDTITLLAKNIKANKEVEFKRIVAINVPKWTNLMHLDTWLTMLDKNKFLYSPIANDVFKFWDYDLVNGGAEPQPQLNGLPLDKLLASIINKEPVLIPIGGAGATEMEIARETNFDGTNYLAIKPGLVIGYDRNEKTNAALKAAGITVLPFHGNQLSLGMGNARCMSMPLSRKDVKW
With B1 the proliferation [1] was “clear dose-dependent decrease in proliferation”, the proliferation [2] was “clear dose-dependent decrease in proliferation” and the cell viability ([3]; cells treated with ASS siRNA) was “reduced cell viability”. The cell viability ([3]; control or scrambled siRNA-treated cells) was “no decrease in viability”, the activation of caspases [4] was “no activation of caspases” and the citrulline levels ([5]; 1, 2, 5 IU) was “rose in a dose-dependent relationship to arginine”. The “serum arginine after end of dosing” value ([5]; 20 days after the last dose (day 40)) was “returned to normal levels”, the citrulline levels ([5]; continued dosing, 2 and 5 IU) was “Little increase in citrulline levels” and the arginine serum levels ([5]; extended dosing, 1 IU) was “below the limits of detection”. The citrulline levels ([5]; extended dosing, 1 IU) was “increased with extended dosing”, the serum arginine ([5]; short course of treatment) was “only temporarily depleted serum arginine” and the “viability (response to drug-induced arginine deprivation)” value [6] was “resistant”. The viability [7] was “reduced the viability”.

Reference: patent US9333268B2, “Methods of treatment with arginine deiminase” (Polaris Group, priority 2012, dated 2016)
